Legend:
Format in all cases: cell-based, human
[1] = test system: MDA-MB-435 β4+-expressing cells (3A7); test: Matrigel chemoinvasion assay, MDA-MB-435 β4+ transfectants; settings: transient transfection; NIH 3T3 conditioned media as chemoattractant
Description: Following the transfection protocol, the ability of the transfected cells to invade Matrigel was assayed. The data are shown as the relative invasion of NFAT transfected cells compared to vector alone-transfected cells (100%). The data shown are mean values (±SEM) of 2 experiments performed in triplicate.
(§1) Invasion assays were performed using standard methods (see Shaw et al., Cell 91:949-960, 1997) using Transwell chambers coated with Matrigel. Briefly, cells were co-transfected with the indicated NFAT constructs, 1 μg EGFP-N1 (Clontech) and 1 μg pCS2-(n)β-Gal, a •gal expression vector (Dave Turner, University of Michigan) using the Lipofectamine procedure (Life Technologies), and after twenty-four hours, the cells were resuspended in serum-free medium containing 0.1% bovine serum albumin (BSA) and added to each well. […] Cells that stained positive for β-galactosidase expression were counted, and the mean of triplicate assays for each experimental condition was used as % relative invasion.

MDA-MB-231 cells = test: Matrigel chemoinvasion assay, MDA-MB-231 cells; settings: transient transfection
Description: FIGS. 3A-3C show the role of NFAT-5 in mediating carcinoma invasion. FIG. 3A is a graph showing luciferase levels in MDA-MB-435 cells expressing vector alone, β4.ΔCYT (3C12), or wild-type β4^+ (3A7 clone) that were transiently transfected with an NFAT-5-luciferase reporter construct (NFAT-5-luc). Luciferase activity is shown as relative luciferase units. […] The lysates were resolved by SDS PAGE and immunoblotted with anti-NFAT-5 (α-NFAT-5, top panel) or anti-p85 (α-p85, bottom panel) The position of the 175 kDa and 90 kDa markers are indicated (left). […] The ability of the transfected cells to invade Matrigel was then assayed and the data are shown as the relative invasion of NFAT-5-transfected cells compared to vector alone-transfected cells (100%).
Invasion assays were performed using standard methods (see Shaw et al., Cell 91:949-960, 1997) using Transwell chambers coated with Matrigel. […] Cells that stained positive for β-galactosidase expression were counted, and the mean of triplicate assays for each experimental condition was used as % relative invasion. […]

[2] = test system: NFAT-5 transcriptional activity; test: NFAT-5-luc luciferase reporter assay in MDA-MB-435 β4+ (3A7) cells; settings: co-transfected with dominant negative NFAT-5 (GFP-ND5)
Description: FIGS. 4A-4D are graphs showing that NFAT-5 transcriptional activity is induced in an α6β4-dependent manner. FIG. 4A is a graph showing NFAT-5 transcriptional activity in control parental cells, β4 (3A7), and β4.ΔCYT (3C12) MDA-MB-435 transfectants that were transiently transfected with NFAT-5-luc. The cells were grown in complete media for twenty-four hours, trypsinized, incubated with anti-α6 (clone 135-13C) for 30 minutes, then plated onto secondary antibody-coated plates, either in the presence (+) or absence (−) of NIH 3T3 conditioned medium (CM), for twenty-four hours. As a positive control, cells were also stimulated with PMA (phorbol 12-myristate 13-acetate) and ionomycin (100 nM each) for twenty-four hours. Following stimulation, cells were lysed and NFAT-5 transcriptional activity was assayed. […] NFAT-5 transcriptional activity was measured as described above. […] NFAT-5 transcriptional activity was measured as described above. […]
Cells were transiently co-transfected with an NFAT luciferase reporter construct (NFAT-luc, 10 μg) and 1 μg pCS2-(n)β-gal using the Lipofectamine procedure (Life Technologies). Twenty-four hours after the transfection, luciferase and beta-galactosidase assays were performed using standard assays on total cell lysates and measured on a luminometer. […]

[3] = test system: Clone A colon cancer cell line; test: Matrigel chemoinvasion assay, Clone A cells; settings: transient transfection
Description: as §1

B1: ND5: dominant negative NFAT-5 mutant, amino acids 1-471 (SEQ ID NO:17) of NFAT5a; blocks dimerization of endogenous NFAT-5 (protein, listed as Homo sapiens)
chain: MGGACSSFTTSSSPTIYSTSVTDSKAMQVESCSSAVGVSNRGVSEKQLTSNTVQQHPSTPKRHTVLYISPPPEDLLDNSRMSCQDEGCGLESEQSCSMWMEDSPSNFSNMSTSSYNDNTEVPRKSRKRNPKQRPGVKRRDCEESNMDIFDADSAKAPHYVLSQLTTDNKGNSKAGNGTLENQKGTGVKKSPMLCGQYPVKSEGKELKIVVQPETQHRARYLTEGSRGSVKDRTQQGFPTVKLEGHNEPVVLQVFVGNDSGRVKPHGFYQACRVTGRNTTPCKEVDIEGTTVIEVGLDPSNNMTLAVDCVGILKLRNADVEARIGIAGSKKKSTRARLVFRVNIMRKDGSTLTLQTPSSPILCTQPAGVPEILKKSLHSCSVKGEEEVFLIGKNFLKGTKVIFQENVSDENSWKSEAEIDMELFHQNHLIVKVPPYHDQHITLPVSVGIYVVTNAGRSHDVQPFTYTPDPAA
- carcinoma invasion (relative invasion vs vector alone) [1]: significantly inhibited invasion
- carcinoma invasion (relative invasion vs vector alone) (MDA-MB-231 cells): significantly inhibited invasion
- co-stimulated NFAT-5 transcriptional activity (α6β4 + conditioned media, or PMA/ionomycin) [2]: inhibited
- carcinoma invasion (relative invasion vs vector alone) [3]: significantly inhibited invasion
